Here are results for two substances from patent US20230019513A1.

In this assay the target is murine Protein S (mouse) (UniProt Q08761). Nature of the assay: cell-based or functional assay.
Sequence of UniProt Q08761 (Q08761 42-675): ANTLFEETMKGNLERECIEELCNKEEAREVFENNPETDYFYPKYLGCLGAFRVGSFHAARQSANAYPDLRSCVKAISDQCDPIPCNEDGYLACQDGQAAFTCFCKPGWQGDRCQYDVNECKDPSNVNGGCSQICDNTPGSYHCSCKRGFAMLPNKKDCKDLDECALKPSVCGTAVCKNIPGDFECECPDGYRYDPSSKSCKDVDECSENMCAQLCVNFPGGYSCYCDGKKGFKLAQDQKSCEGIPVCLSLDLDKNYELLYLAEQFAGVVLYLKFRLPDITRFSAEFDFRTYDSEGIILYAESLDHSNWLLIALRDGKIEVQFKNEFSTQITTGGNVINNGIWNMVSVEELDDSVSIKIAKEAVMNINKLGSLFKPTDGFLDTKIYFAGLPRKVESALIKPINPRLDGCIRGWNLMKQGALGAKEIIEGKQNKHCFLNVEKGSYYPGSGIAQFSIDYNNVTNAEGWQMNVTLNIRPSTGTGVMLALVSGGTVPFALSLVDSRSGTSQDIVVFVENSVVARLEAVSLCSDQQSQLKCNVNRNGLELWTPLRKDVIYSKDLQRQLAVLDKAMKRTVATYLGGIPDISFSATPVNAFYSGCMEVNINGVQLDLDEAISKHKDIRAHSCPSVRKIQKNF

“mutated recombinant mouse APC (rmAPC L38D) (from UniProt P33587 42-460) (enzyme)” showed a reduction of ETP in Ca2+ ionophore-activated PRP of WT mice at 8 nM APC of 30%. The substance “wild type recombinant mouse APC (wt-rmAPC) (from UniProt P33587 42-460) (enzyme)” displayed a reduction of ETP in Ca2+ ionophore-activated PRP of WT mice at 8 nM APC of 90%.
